In this assay the target is RNA Polymerase II (RNAPII), phospho-Ser2 C-terminal domain (pS2-CTD) (UniProt P24928). As to the kind of experiment: cell-based or functional assay.

Chain of myc-tagged wild-type Kub5-Hera (K-H) (Q9NQG5 whole entry): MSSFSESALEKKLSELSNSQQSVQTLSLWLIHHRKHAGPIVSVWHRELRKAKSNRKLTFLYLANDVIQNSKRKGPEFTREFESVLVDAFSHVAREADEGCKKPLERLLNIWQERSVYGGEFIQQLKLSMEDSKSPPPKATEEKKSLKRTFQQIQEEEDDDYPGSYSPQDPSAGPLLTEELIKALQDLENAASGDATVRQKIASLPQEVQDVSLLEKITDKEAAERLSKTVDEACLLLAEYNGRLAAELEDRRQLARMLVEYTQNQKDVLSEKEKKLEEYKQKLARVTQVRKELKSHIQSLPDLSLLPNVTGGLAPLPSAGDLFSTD

“myc-tagged wild-type Kub5-Hera (K-H) (from UniProt Q9NQG5 1-326)” returned a CDK1 promoter activity (luciferase reporter, 231 cells) of 3 fold.

The record behind these values is US20180057888A1, “KUB5/HERA AS A DETERMINANT OF SENSITIVITY TO DNA DAMAGE” (priority 2015, published 2018).
